Experimental data taken from paper PMC4966575.

Molecular target: scFv 10-94 P (murine)
Assay: SPR

## Protein L (PpL), free (from UniProt Q51918 1-992) (natural protein)
  KD1 (bivalent model): 7.5 nM
